Usually Kd stands for the free concentration of one partner at which half of the binding sites on the other are occupied at equilibrium, for simple one-to-one binding.

The target in the assay is T1, wild-type Fc (wtFc), recombinant Fc fragment of human IgG1 (human).
T1 construct: human IgG1 heavy chain constant region, Fc fragment, residues 223-447; also called IgG Fc
In words: SPR; BIAcore 2000; wtFc amine-coupled to a CM5 chip (440 RU); CgE injected, three-fold dilutions from 30 μM to 5 nM; pH 8 (50 mM HEPES pH 8.0, 150 mM NaCl, 3 mM EDTA, 0.005% P-20); equilibrium response fitted to a single-site model. The conditions noted are these: both partners purified.

B1: C-terminal domain of the gE ectodomain (CgE), HSV-1 gE residues 213-390 (domain or fragment)
chain: APEVSHVRGVTVRMETPEAILFSPGETFSTNVSIHAIAHDDQTYSMDVVWLRFDVPTSCAEMRIYESCLYHPQLPECLSPADAPCAASTWTSRLAVRSYAGCSRTNPPPRCSAEAHMEPVPGLAWQAASVNLEFRDASPQHSGLYLCVVYVNDHIHAWGHITISTAAQYRNAVVEQPL
modifications: secreted from High 5 insect cells; disulfides Cys271-Cys297, Cys280-Cys289 and Cys314-Cys323 (gE numbering = entity position + 211); C-terminal Factor Xa site and 6xHis left out
On to B1, for which the equilibrium dissociation constant (Kd) was ~7 µM.

The record behind these values is publication PMC1450327, “Crystal Structure of the HSV-1 Fc Receptor Bound to Fc Reveals a Mechanism for Antibody Bipolar Bridging” (PLoS Biology, 2006).
